B1: Cripto mutant lacking the CFC domain (ΔCFC), Flag-tagged (ligand, not shown: small tags and cut ends)
chain: not shown
notes: also called Cripto ACFC mutant; ACFC
B2: TGF-β type I receptor, HA-tagged (TβRI-HA) (receptor, UniProt P36897 34-503, looked up, not shown: small tags and cut ends)
chain: LQCFCHLCTKDNFTCVTDGLCFVSVTETTDKVIHNSMCIAEIDLIPRDRPFVCAPSSKTGSVTTTYCCNQDHCNKIELPTTVKSSPGLGPVELAAVIAGPVCFVCISLMLMVYICHNRTVIHHRVPNEEDPSLDRPFISEGTTLKDLIYDMTTSGSGSGLPLLVQRTIARTIVLQESIGKGRFGEVWRGKWRGEEVAVKIFSSREERSWFREAEIYQTVMLRHENILGFIAADNKDNGTWTQLWLVSDYHEHGSLFDYLNRYTVTVEGMIKLALSTASGLAHLHMEIVGTQGKPAIAHRDLKSKNILVKKNGTCCIADLGLAVRHDSATDTIDIAPNHRVGTKRYMAPEVLDDSINMKHFESFKRADIYAMGLVFWEIARRCSIGGIHEDYQLPYYDLVPSDPSVEEMRKVVCEQKLRPNIPNRWQSCEALRVMAKIMRECWYANGAARLTALRIKKTLSQLSQQEGIKM
notes: whole, on cells; Gift construct; also called TBβRI-HA; TBβRI
B3: endogenous human GRP78 (glucose regulated protein 78) at the cell surface (receptor)
chain: not shown
notes: whole, on cells; Endogenous protein; surface pool labelled with cell-impermeable biotin in the co-immunoprecipitations; also called BiP; cell surface GRP78

Tests used:
[1] = biological target: T1, human GRP78 with a hemagglutinin (HA) epitope at its C terminus (human, UniProt P11021 19-654); experiment: cell-free pull-down of biotinylated GRP78-HA on Cripto mutant beads
T1 construct: also called GRP78-HA; WT GRP78-HA
Excerpt: To further characterize the ability of Cripto to bind cell surface GRP78, the inventors tested whether GRP78 from one population of cells could bind mature Cripto isolated from a separate cell population in a cell free system. […] The beads were then washed again and bound proteins were eluted with Flag peptide and subjected to Western blotting using avidin-HRP, anti-GRP78 or anti-Cripto antibodies. […] Moreover, biotinylated (i.e. cell surface-labeled) GRP78 was specifically eluted from beads previously exposed to Cripto-Flag lysates but not from beads exposed to vector lysates.
In order to explore the interaction between Cripto and GRP78 further, the inventors used the method described above (FIG. 2B) to test whether cell surface labeled GRP78 binds Cripto mutants lacking either the EGF-like domain (AEGF) or CFC domain (ACFC). In this experiment, the inventors assessed the ability of biotinylated, HA-tagged GRP78 from one cell population to bind wild type and mutant forms of Cripto originating from separate cell populations.

[2] = biological target: B3; experiment: anti-HA immunoprecipitation from surface-biotinylated 293T cells, avidin-HRP and anti-GRP78 blots
Protocol: (§1) Cell lysates and immunoprecipitations. Cell lysates were prepared in RIPA buffer as previously described (Gray et al., 2006). For immunoprecipitation experiments, 1-5 mg protein extract was pre-cleared by protein G-PLUS-Agarose beads for 2 hours at 4° C. The pre-cleared extracts were incubated as indicated with 40 μl anti-FLAG M2 gel beads or 20 μl G-PLUS-Agarose pre-incubated with 15 μl anti-GRP78 (KDEL), 10 μl anti-HA, or 25 μl anti-His for 2 hours at 4° C. Immunoprecipitates were subsequently washed 4 times with RIPA buffer and 2 times with 54K buffer (50 mM tris pH 7.9, 150 mM NaCl, 0.5% Triton X-100). The proteins were then eluted either by heating the beads at 95° C. in sample buffer or by the addition of 50 μl of Flag peptide (1 μg/μl) followed by removal of any remaining associated proteins by heating in sample buffer. Western blotting
(§2) The finding that GRP78 inhibits TGF-β signaling raised the possibility that it does so by binding directly to type I and/or type II TGF-β signaling receptors. […] Here the inventors have further tested whether GRP78 similarly co-immunoprecipitates with TBβRI and TBβRII. […] Each of these proteins was immunoprecipitated as bait and then immune complexes were assessed for the presence of GRP78. […] However, only Cripto pulled down endogenous GRP78 as detected both by avidin-HRP and anti-GRP78 antibody (FIG. 5).

[3] = biological target: T2, TGF-β type II receptor, His-tagged (TβRII-His) (UniProt P37173 23-166, limits assumed); experiment: anti-His immunoprecipitation from surface-biotinylated 293T cells, avidin-HRP and anti-GRP78 blots
T2 construct: whole, on cells; Gift construct; also called TBβRII-His; TBβRII; not shown: His tag
Protocol: as §1, §2

T1 sequence (P11021 19-654 limits assumed): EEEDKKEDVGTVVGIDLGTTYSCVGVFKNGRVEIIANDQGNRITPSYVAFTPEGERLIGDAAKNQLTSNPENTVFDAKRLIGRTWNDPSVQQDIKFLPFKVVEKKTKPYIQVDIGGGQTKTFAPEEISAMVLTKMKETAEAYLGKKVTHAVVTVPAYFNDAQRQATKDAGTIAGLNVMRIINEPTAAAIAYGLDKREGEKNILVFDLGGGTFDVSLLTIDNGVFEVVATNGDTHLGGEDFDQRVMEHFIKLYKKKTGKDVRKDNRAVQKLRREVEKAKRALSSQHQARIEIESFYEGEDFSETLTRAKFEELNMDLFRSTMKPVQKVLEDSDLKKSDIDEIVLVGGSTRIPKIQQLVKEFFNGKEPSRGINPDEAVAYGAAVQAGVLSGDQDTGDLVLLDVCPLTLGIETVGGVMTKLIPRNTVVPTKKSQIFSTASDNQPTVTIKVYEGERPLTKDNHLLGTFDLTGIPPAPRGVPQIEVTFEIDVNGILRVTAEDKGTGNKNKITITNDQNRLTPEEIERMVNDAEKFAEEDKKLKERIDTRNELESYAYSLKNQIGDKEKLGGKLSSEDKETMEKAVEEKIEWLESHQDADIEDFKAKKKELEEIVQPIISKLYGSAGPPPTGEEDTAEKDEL
T2 sequence (P37173 23-166 limits assumed): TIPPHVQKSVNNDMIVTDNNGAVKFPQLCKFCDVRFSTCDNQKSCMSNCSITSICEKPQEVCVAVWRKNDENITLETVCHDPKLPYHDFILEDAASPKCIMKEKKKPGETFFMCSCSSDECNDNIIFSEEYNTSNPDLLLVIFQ

B1: no binding [1].

B2: no binding [2].

B3: no binding [3].
